Data on 4 molecules can be found in patent US8734776B2 (ZymoGenetics, Inc., priority 2003, dated 2014).

Read-outs that look alike come from different tables or passages of the source.

In one series the test system is IL-28RA mRNA. Put plainly: Semi-quantitative RT-PCR of IL-28RA, IFNAR2 and CRF2-4 mRNA. Format: cell-based, human. The settings on record: HepG2 cells + cytokine. The procedure:
In order to further examine the mRNA distribution for IL-28RA, semi-quantitative RT-PCR was performed using the SDS 7900HT system (Applied Biosystems, CA). One-step RT-PCR was performed using 100 ng total RNA for each sample and gene-specific primers. A standard curve was generated for each primer set using Bjab RNA and all sample values were normalized to HPRT. The normalized values for IFNAR2 and CRF2-4 are also shown.

In a further series the test system is HCV replicon. The settings on record: replicon clones; IFNα at 10 IU/ml; cited from earlier work. Background: A replicon is a self-replicating genome or part of one, used to study replication in cells.
The next series concerns Human Daudi cells. The series can be described thus: Daudi cell proliferation (Alamar Blue). Format: cell-based. The note with it: 1000 ng/ml to 0.5 ng/ml; 72 h. Here is the method:
Human Daudi cells were suspended in RPMI+10% FBS at 50,000 cells/milliliter and 5000 cells were plated per well in a 96 well plate. […] IL-29-CEE was used at a concentration range of from 1000 ng/ml to 0.5 ng/ml. […] IFN-α2a was used at a concentration range of from 62 ng/ml to 0.03 ng/ml. Cells were incubated for 72 h at 37° C. […] Plates were farther incubated at 37° C., 5% CO2, for 24 hours.
On the technique in general: Resazurin is reduced to fluorescent resorufin, in cell work by metabolically active cells.

In series [1] the test system is human peripheral blood mononuclear cells. The series can be described thus: Induction of IL-28A, IL-29, IL-28B RNA in PBMCs by poly I:C and viral infection. The settings on record: poly I:C 100 μg/ml, 15 h.
Series [2] has as its system ISG gene expression (OAS, Pkr, Mx1). The series can be described thus: ISG gene induction in liver, spleen and blood of injected mice. Type of series: in vivo, mouse. The settings on record: C57BL/6 mice; i.p or i.v; 10 μg-250 μg. Here is the method:
In addition, E. coli derived IL-29 was also tested in in vivo assays as described above using MetIL-29C172S-PEG and MetIL-29-PEG. At various time points and at different doses, ISG gene induction was measured in the blood, spleen and livers of the mice.
Mice were sacrificed at various time points (1 hr-48 hr). Spleens and livers were isolated from mice, and RNA was isolated. RNA was also isolated from the blood cells. The cells were pelleted and RNA isolated from pellets using RNAEasy®-kit (Qiagen). RNA was treated with DNase (Amicon) to rid RNA of any contaminating DNA. cDNA was generated using Perkin-Elmer RT mix (Perkin-Elmer). ISG gene induction was measured by real-time PCR using primers and probes specific for mouse OAS, Pkr and M×1. To obtain quantitative data, HPRT real-time PCR was duplexed with ISG PCR. A standard curve was calculated using known amounts of IFN-stimulated mouse PBLs. All data are shown as expression relative to internal HPRT expression.
Results shown are fold expression relative to HPRT gene expression. […] The data shown is the average expression from 5 different animals/group.
Data shown is fold expression over HPRT expression from livers of mice. Similar data was obtained from blood and spleens of mice.

For series [3], the system named is rhino virus. Type of series: cell-based.
The test system of another series is OAS. The series can be described thus: OAS activity in serum and plasma of mice (RIA). The settings on record: C57BL/6 mice; i.v; 10 μg-250 μg.
Series [4] concerns parainfluenza virus. Type of series: cell-based. The note with it: MA-104 cells.
Series [5] concerns venezuelan equine encephalitis virus. Type of series: cell-based. The note with it: Vero cells.
Series [6] concerns adenovirus. Format: cell-based. The settings on record: A549 cells.
The subject of series [7] is dengue virus. Type of series: cell-based. The settings on record: Vero cells.
Series [8] has as its system polio virus. Type of series: cell-based. The note with it: Vero cells.
In series [9] the test system is west nile virus. Type of series: cell-based. The settings on record: Vero cells.
Series [10] deals with influenza virus. Format: cell-based. The note with it: Influenza (type A [H3N2]).
Series [11] deals with respiratory syncytial virus. Type of series: cell-based. The note with it: MA-104 cells.
The subject of series [12] is pichinde virus. Format: cell-based.
Series [13] deals with west nile virus. Type of series: cell-based. The note with it: Vero cells. This is another data set of the same source.
Series [14] has as its system polio virus. Format: cell-based. The note with it: Vero cells. The source holds these as a separate data set.
Series [15] deals with rhino virus. Type of series: cell-based. This is another data set of the same source.
Series [16] deals with vaccinia virus. Type of series: cell-based. The note with it: Vero cells.
Series [17] concerns vaccinia virus. Format: cell-based. The note with it: Vero cells. This is another data set of the same source.
The subject of series [18] is venezuelan equine encephalitis virus. Format: cell-based. The note with it: Vero cells. This is another data set of the same source.
For series [19], the system named is human Daudi B lymphoid cells. Put plainly: Induction of interferon-stimulated genes in Daudi cells (RT-PCR). Format: cell-based. The note with it: 72 hours, conditioned medium from Sf9 cells. An excerpt:
Interaction of type 1 interferons with their specific receptor leads to induction of a number of genes responsible for their antiviral/antiproliferative activity. These include 2′-5′ oligoadenylate synthetase (2-OAS), double-stranded RNA dependent Pkr kinase (Pkr), phospholipid scramblase, and intercellular adhesion molecule-1 (ICAM-1). Induction of genes with as yet unknown function, such as a 56 kDa interferon stimulated gene product (ISG-56k), also occurs. […] Conditioned medium from Sf9 cells infected with wild-type baculovirus was used as a negative control. Following treatment cells were collected and lysed for isolation of total RNA. One microgram of total RNA was converted to cDNA using reverse transcriptase and used as a template for polymerase chain reaction using oligonucleotide primers specific for the human interferon-stimulated genes described above. Oligonucleotide primers for human […] (G3PDH) were used as a non-interferon stimulated gene control.

The subject of series [20] is parainfluenza virus. Format: cell-based. The settings on record: MA-104 cells. The source holds these as a separate data set.
The subject of series [21] is coxsackie virus. Format: cell-based. The note with it: Coxsackie B4 virus, KB cells.
The subject of series [22] is encephelomyocarditis virus. Put plainly: Antiviral assay: cytopathic effect in L929 cells. Format: cell-based, mouse.
Series [23] concerns dengue virus. Format: cell-based. The settings on record: Vero cells. This is another data set of the same source.
A further series concerns HHV-8. The series can be described thus: HHV-8 replication in BCBL-1 cells (TaqMan PCR). For orientation: In qPCR the cycle at which signal appears reflects the starting amount.
The test system of series [24] is pichinde virus. Type of series: cell-based. This is another data set of the same source.
Series [25] deals with respiratory syncytial virus. Format: cell-based. The settings on record: MA-104 cells. The source holds these as a separate data set.
The test system of series [26] is influenza virus. Format: cell-based. The settings on record: Influenza (type A [H3N2]). The source holds these as a separate data set.
The subject of series [27] is coxsackie virus. Format: cell-based. The settings on record: Coxsackie B4 virus, KB cells. The source holds these as a separate data set.
The next series has as its system BVDV. The series can be described thus: BVDV CPE inhibition assay in MDBK cells. Format: cell-based. The settings on record: MDBK bovine kidney cells. Here is the method:
IFNα and RIBAVIRIN® were used as positive controls. Test sample were added at the time of viral infection.

For series [28], the system named is adenovirus. Type of series: cell-based. The settings on record: A549 cells. This is another data set of the same source.
Series [29] relates to encephelomyocarditis virus. Put plainly: Antiviral assay: cytopathic effect in HeLa cells. Type of series: cell-based, human.
Setting [30] is: Maden-Darby Canine Kidney cells.

Regarding IFNα [reference compound], in the series on IL-28RA mRNA, the “CRF2-4 mRNA normalized to HPRT” value is listed as 3.05, the “IFNAR2 mRNA normalized to HPRT” value came to 3.00 and the “IL-28RA mRNA normalized to HPRT” value was found to be 2.61. Moreover, the “reduction of the amount of HCV RNA compared to untreated control cell lines” value in the series on HCV replicon was 85%.
For “IL-29-CEE: IL-29 conjugated with glu tag”, the “effect on proliferation of Daudi cells” value with Human Daudi cells is reported as “no significant effect”.
For “polyinosinic acid-polycytidylic acid [poly I:C]”, the “amount of IL-28A, IL-29, IL-28B RNA” value in series [1] is “increased”.

B1: IL-28A: human IL-28A, previously designated zcyto20, SEQ ID NO:2 (protein, listed as Homo sapiens)
chain: MKLDMTGDCTPVLVLMAAVLTVTGAVPVARLHGALPDARGCHIAQFKSLSPQELQAFKRAKDALEESLLLKDCRCHSRLFPRTWDLRQLQVRERPMALEAELALTLKVLEATADTDPALVDVLDQPLHTLHHILSQFRACIQPQPTAGPRTRGRLHHWLYRLQEAPKKESPGCLEASVTFNLFRLLTRDLNCVASGDLCV
modifications: SIGNAL (1)...(25)
For the molecule B1, the “ISG gene expression (OAS, Pkr, Mx1) in the livers, spleen and blood of mice” value in series [2] is reported as “did not induce ISG gene expression”. Besides, the “EC50 NR” value is over 10 µg/mL with rhino virus [3] (Rhino 2, KB cells); 1.726 µg/mL in the series with rhino virus [3] (Rhino 9, HeLa cells); 0.035 µg/mL in series [5]; over 10 µg/mL with adenovirus [6]; 0.1 µg/mL in the series on dengue virus [7]; over 1.672 µg/mL in the series with polio virus [8]. Besides, the “EC50 NR” value with influenza virus [10] (setting [30]) is over 10 µg/mL; in the series with influenza virus [10] (Vero cells), 0.25 µg/mL; with west nile virus [13], 0.1 ng/mL; with vaccinia virus [16], over 10 µg/mL; with parainfluenza virus [20], over 10 µg/mL; in the series with pichinde virus [24], over 10 µg/mL. The “EC50 NR” value (in series [25]; in the series on coxsackie virus [27]) was over 10 µg/mL in each case. In addition, the “IC50 NR” value with rhino virus [3] (Rhino 2, KB cells) was over 10 µg/mL; in the series with rhino virus [3] (Rhino 9, HeLa cells) it was over 10 µg/mL; in series [5], over 10 µg/mL; in the series on adenovirus [6] it was over 10 µg/mL; in the series on dengue virus [7], over 10 µg/mL; with polio virus [8] it was over 10 µg/mL. Moreover, the “IC50 NR” value with influenza virus [10] (setting [30]), in the series with influenza virus [10] (Vero cells), in the series on west nile virus [13], with vaccinia virus [16], in the series with parainfluenza virus [20] and with pichinde virus [24] was over 10 µg/mL throughout. Moreover, the “IC50 NR” value (in series [25]; in the series on coxsackie virus [27]) was over 10 µg/mL throughout. The “OAS activity in the serum and plasma of mice” value with OAS is reported as “induced OAS activity”. Moreover, the “EC50 Visual” value in the series with parainfluenza virus [4] is over 10 µg/mL; in the series on west nile virus [9] it was 0.01 ng/mL; in series [11] it was over 10 µg/mL; with pichinde virus [12] it was over 10 µg/mL; in the series with polio virus [14], over 10 µg/mL; in the series on rhino virus [15] (Rhino 2, KB cells) it was over 10 µg/mL. Besides, the “EC50 Visual” value was over 10 µg/mL in the series on rhino virus [15] (Rhino 9, HeLa cells); over 10 µg/mL in the series with vaccinia virus [17]; 0.01 µg/mL in series [18]; over 10 µg/mL in the series on coxsackie virus [21]; 0.01 µg/mL in the series on dengue virus [23]; over 10 µg/mL with influenza virus [26] (setting [30]). The “EC50 Visual” value was 0.1 µg/mL with influenza virus [26] (Vero cells) and over 10 µg/mL in the series with adenovirus [28]. Besides, the “IC50 Visual” value in the series with parainfluenza virus [4] was over 10 µg/mL; with west nile virus [9], over 10 µg/mL; in series [11], over 10 µg/mL; with pichinde virus [12], over 10 µg/mL; with polio virus [14], over 10 µg/mL; with rhino virus [15] (Rhino 2, KB cells), over 10 µg/mL. Further, the “IC50 Visual” value with rhino virus [15] (Rhino 9, HeLa cells) is over 10 µg/mL; in the series on vaccinia virus [17] it was over 10 µg/mL; in series [18], over 10 µg/mL; in the series with coxsackie virus [21] it was over 10 µg/mL; with dengue virus [23] it was over 10 µg/mL; with influenza virus [26] (setting [30]) it was over 10 µg/mL. Further, the “IC50 Visual” value with influenza virus [26] (Vero cells) and in the series on adenovirus [28] was over 10 µg/mL in each case. Further, in the series with BCBL-1 cells, the TC50 is over 10 µg/mL. Also, in series [19], the “induction of ICAM-1” value is reported as “No induction”. Moreover, the “induction of ISG-56k, Pkr, 2-5 OAS and phospholipid scramblase” value in series [19] is on record as “clear induction”. Moreover, the “Percentage Cytopathic Effect” value in series [22] (relative CM conc. .008X), in series [22] (relative CM conc. .0156X), in [22] (relative CM conc. .0325X), in series [22] (relative CM conc. .0625X), in series [22] (relative CM conc. .125X) and in series [22] (relative CM conc. .25X) was 87% in each case. For the same molecule, the “Percentage Cytopathic Effect” value in series [22] (relative CM conc. .5X) came to 87%; in series [29] (relative CM concentration .008X), 10%; in [29] (relative CM concentration .0156X) it was 2.5%; in [29] (relative CM concentration .0325X), 5%; in series [29] (relative CM concentration .0625X), 2.5%; in series [29] (relative CM concentration .125X), 0%. Besides, the “Percentage Cytopathic Effect” value in series [29] (relative CM concentration .25X) and in series [29] (relative CM concentration .5X) was 0% in each case. Further, in the series with HHV-8, the “TI (TC50/IC50)” value is over 10. Besides, the “IC50 HHV-8 viral replication” value in the series with HHV-8 (extracellular HHV-8 DNA) worked out at 1 µg/mL. In the series on BVDV, the “IC50 inhibition of cell death induced by BVDV” value was found to be 0.02 µg/mL.
